Among the data in patent publication US8535684 are inhibition of viral replication (ADCC mediated, in vitro) values, retold here.

The target in the experiment is Nedd4 on the surface of virus-infected MDCK cells (canine (MDCK cells)). Kind of experiment: cell-based or functional assay.

In turn, Human Nedd4 antibody Ab101AP returned an inhibition of viral replication (ADCC mediated, in vitro) of 80 % inhibition.
Substance Human Nedd4 antibody Ab27979 displayed an inhibition of viral replication (ADCC mediated, in vitro) of 80 % inhibition.
